Measurements reported in US11739318B1, “Modified biosensors and biocatalysts and methods of use” (priority 2017, dated 2023).

Experiments:
pNP sensor = assay: Raw whole cell fluorescence with pNP sensor and sfGFP-PON1 under positive feedback regulation, flow cytometer; format: cell-based, E. coli; conditions: mean of duplicate cultures ± SD
From the text: FIGS. 16A-16D show ‘Catalyze’ and ‘sense’ system for hydrolysis reactions. […] UI: background fluorescence from cells without any pNP source to induce the TF; […]; pNP: TF induced by exogenously supplied pNP as a control/reference. […] Relative activity levels are distinguishable by eye.
The technique described here (referred to in this example as “smart microbial cells” or SMC; e.g., FIGS. 1A and 1B) allows for catalysis and sensing in the same microbial cell. For a practical library application, we simplified and improved the signal to noise ratio of the biosensor. This was achieved by gene fusing the PON1 to the GFP so that the TF is also regulating the catalytic enzyme expression as well (scheme shown in FIG. 1B). This fusion is expected to have three distinct effects. First, it provides positive feedback, such that more the activity, the more PON1 is expressed, and in turn further ‘feeds’ the activity. […] Second, feedback will amplify the already present correlation between activity and GFP expression. Third, for suitably chosen GFP, the fluorescence signal conveniently reports the amount of fused PON1 present, allowing normalization for specific activity.
. Based on the catalytic efficiency and the cytoplasmic concentration of the hydrolase, PXN hydrolysis results in a correlated pNP production inside the microbial cell that ultimately determines activation of the pNP sensor and accumulation of sfGFP in the cells. […] When pNP was used as an inducer, such that the expression of sfGFP-PON1 expression is independent of the catalytic efficiency of PON1, modest differences in cell fluorescence were still captured across the PON1 variants indicating V346A mutation could be detrimental to PON1 expression and stability (FIG. 16C, Table 6).

BKA = BKA sensing with PcaR variants in high BKA producing strain NN7; format: cell-based, P. putida; conditions: strain NN7, LB background BKA production
From the text: Rosetta homology modeling, using a known structure of a transcription factor with a homologous sequence (PDB code 2G7U) was used to get a 3D estimate of the PcaR inducer binding domain. Based on the predicted structure, several amino acids in the pocket were identified to be suitable for mutagenesis. […] Positions N140, L161, L166, L172, M179, L234, L238, S240, N257 and S259 were mutated for diversification to achieve N/S/T/I at positions 140 and 257, L/M/V at positions 161, 166, 172, 179, 234 and 238, S/T/A at position 240 and 259. This produced a library of diversity>100,000. The library was transformed in high BKA producing strain where native pcaR gene was deleted (strain NN7) and screened for increase fluorescence response with increasing dose of precursors while in the LB mediated BKA production background.

[1] = UbiC enzyme kinetic parameters (pyruvate release coupled to lactate dehydrogenase, NADH oxidation at 340 nm); format: biochemical; conditions: sfGFP fused UbiC variants with C-terminal 6xHis tag, 30° C., pH 7.5; for Km: chorismate
Description: Enzyme expression and purification: 5 mL cultures were grown from the glycerol stocks of P. putida CJ182 containing plasmids encoding 6×His-tag UbiC variants. At an OD600 of ˜0.6, the cultures were induced with 1 mM 4HB and further grown for 16 h at 30° C. and 225 rpm shaking. The cultures were centrifuged at 3500×g for 10 min and the cell pellets were lysed with 500 μL BugBuster (Novagen) under slow shaking for 30 min. The cell lysates were centrifuged at 15,000×g for 15 min at 4° C. and the sfGFP-UbiC fusion proteins were purified by Affinity Chromatography using Talon beads (Clontech). For purification, the clarified supernatant for each UbiC variant was mixed with 200 μL Talon beads in an equilibration buffer (50 mM Tris-HCl, 300 mM NaCl, pH 7.5) for 30 min. The mixture was centrifuged at 2000×g, the supernatant was discarded and the pellet consisting of Talon beads with bound protein was washed two times with equilibration buffer containing 50 mM imidazole. Finally, the beads were mixed with elution buffer (50 mM Tris-HCl, 300 mM NaCl, 300 mM Imidazole, pH 7.5) and filtered through a spin column with 0.2 µm filter. The enzyme concentration and purity of the protein in the eluate were determined by absorbance at 280 nm using a Nanodrop (Thermo Scientific) and SDS polyacrylamide gel electrophoresis, respectively.
Determining enzyme kinetic parameters: The production of 4HB from chorismate catalyzed by UbiC is accompanied with release of a pyruvate molecule. […] The reactions were conducted in 96-well plate at 30° C. in the Synergy H4 Hybrid Microplate Reader (Biotek). The kinetic parameters and product inhibition constants were determined by measuring the initial reaction rates with respect to varying substrate and product concentrations and calculated using GraphPad Prism software.

P. putida CJ200 = assay: Shake flask muconate production; format: cell-based; conditions: plasmid expressed, over CJ200 with no heterologous UbiC expression
Description: Shake flask experiments for muconate production: P. putida CJ200 transformed with pPobR_ubiC plasmids or with genomically integrated ubiC-C22 under PobR regulation (NP015) were grown in 125 mL baffled shake flasks containing 25 mL of 1×M9 salts (6.78 g/L Na2HPO4, 3 g/L KH2PO4, 0.5 g/L NaCl, 1 g/L NH4Cl), 30-50 mM glucose, 2 mM MgSO4, 100 μM CaCl2), 18 μM FeSO4, and 50 μg/mL kanamycin. Seed cultures were grown from glycerol stocks in LB media supplemented with 50 μg/mL kanamycin, for 16 hours, pelleted and washed with M9 growth medium and subcultured into flasks to a final OD600 of 0.05. Cultures were incubated at 30° C. and 225 rpm for up to 2 days. Samples were taken at regular intervals to quantify cell density, glucose consumption, and muconate concentration.
Quantification of glucose and muconate concentrations using High Performance Liquid Chromatography (HPLC): To measure muconate concentration, culture samples collected at various time points were centrifuged either at 3,500 rpm for 10 min or 16,000 rpm for 1 min. […] The samples were analyzed for 10 min on a Fast Acid column (Phenomenex Rezex RFQ-Fast Acid H+(8%)) using 0.01 N H2SO4 at a flow rate of 0.8 mL/min as a mobile phase. […] Alternatively, the samples were analyzed for 40 min on a SUPELCOGEL H Column (SUPELCO) with 0.1% H2SO4 at 0.5 mL/min. […]

Molecule	fluorescence response with BKA precursors, catechol and PCA (BKA)	kcat [1] [s⁻¹]	Km [1] [µM]	other results
H115W/V346A: PON1 version that combines the two mutations H115W/V346A (protein, UniProt P27169 2-355, looked up, variant H115W V346A) Serum …: AKLIALTLLGMGLALFRNHQSSYQTRLNALREVQPVELPNCNLVKGIETGSEDLEILPNGLAFISSGLKYPGIKSFNPNSPGKILLMDLNEEDPTVLELGITGSKFDVSSFNPWGISTFTDEDNAMYLLVVNHPDAKSTVELFKFQEEEKSLLHLKTIRHKLLPNLNDIVAVGPEHFYGTNDHYFLDPYLQSWEMYLGLAWSYVVYYSPSEVRVVAEGFDFANGINISPDGKYVYIAELLAHKIHVYEKHANWTLTPLKSLDFNTLVDNISVDPETGDLWVGCHPNGMKIFFYDSENPPASEVLRIQNILTEEPKVTQVYAENGTVLQGSTVASVYKGKLLIGTAFHKALYCEL	–	–	–	Raw whole cell fluorescence intensity, PXN (1.6 mM) (pNP sensor; exogenous paraoxon 1.6 mM): 2410 ± 669; Raw whole cell fluorescence intensity, pNP (200 μM) (pNP sensor; induced with exogenous pNP 200 μM): 11484 ± 2032; Raw whole cell fluorescence intensity, UI (pNP sensor; uninduced, no pNP source): 248 ± 36
PcaR-G5: PcaR variant for a low sensitivity BKA sensor, SEQ ID NO: 26 (protein, PcaR-G5) MSDETLGNDSGNAEVARPASAAMAPPIVASPAKRIQAFTGDPDFMTSLARGLAVIQAFQERKRHLTIAQISHRTEIPRAAVRRCLHTLIKLGYATTDGRTYSLLPKVLTLGHAYLSSTPLAISAQPYLDRISDQLHEAANMATLEGDDILYIARSATVERLISVDLSVGGRMPAYCTSMGRILLAAMDDTSLREYLERADLKARTSRTLNDPESLFACIQQVRAQGWCVVDQELEQGVRAIAVPVYDASGQVLAALSVSTHVGRVTRSELEQRFLPILLAASRDLCHQLFG	showed dose dependent response	–	–	–
PcaR-H6: PcaR variant for a low sensitivity BKA sensor, SEQ ID NO: 28 (protein, PcaR-H6) MSDETLGNDSGNAEVARPASAAMAPPIVASPAKRIQAFTGDPDFMTSLARGLAVIQAFQERKRHLTIAQISHRTEIPRAAVRRCLHTLIKLGYATTDGRTYSLLPKVLTLGHAYLSSTPLAISAQPYLDRISDQLHEAANMATLEGDDILYIARSATVERLISVDLSVGGRMPAYCTSMGRILLAAMDDTSLREYLERADLKARTSRTLNDPESLFACIQQVRAQGWCVVDQELEQGVRSIAVPVYDASGQVLAALSVSTHVGRVTRSELEQRFLPILLAASRDLCHQLFG	showed dose dependent response	–	–	–
PcaR-F6: PcaR variant for a low sensitivity BKA sensor, SEQ ID NO: 27 (protein, PcaR-F6) MSDETLGNDSGNAEVARPASAAMAPPIVASPAKRIQAFTGDPDFMTSLARGLAVIQAFQERKRHLTIAQISHRTEIPRAAVRRCLHTLIKLGYATTDGRTYSLLPKVLTLGHAYLSSTPLAISAQPYLDRISDQLHEAANMATLEGDDILYIARSATVERLISVDLSVGGRLPAYCTSMGRILLAAMDDTSLREYLERADLKARTSRTLNDPESLFACIQQVRAQGWCVVDQELEQGMRTIAVPVYDASGQVLAALSVSTHVGRVTRSELEQRFLPILLAASRDLCHQLFG	showed dose dependent response	–	–	–
UbiC_C21: E. coli UbiC variant with mutations M34V/I78V (protein, UniProt P26602 2-165, looked up, variant M34V I78V) Chorismate pyruvate-lyase: SHPALTQLRALRYCKEIPALDPQLLDWLLLEDSVTKRFEQQGKTVSVTMIREGFVEQNEIPEELPLLPKESRYWLREVLLCADGEPWLAGRTVVPVSTLSGPELALQKLGKTPLGRYLFTSSTLTRDFIEIGRDAGLWGRRSRLRLSGKPLLLTELFLPASPLY	–	0.67 ± 0.06	90.2 ± 7.8	muconate yield increase (P. putida CJ200): ~130%
UbiC_C11: E. coli UbiC variant with mutations E31Q/I78V/L80V (protein, UniProt P26602 2-165, looked up, variant E31Q I78V L80V) Chorismate pyruvate-lyase: SHPALTQLRALRYCKEIPALDPQLLDWLLLQDSMTKRFEQQGKTVSVTMIREGFVEQNEIPEELPLLPKESRYWLREVLVCADGEPWLAGRTVVPVSTLSGPELALQKLGKTPLGRYLFTSSTLTRDFIEIGRDAGLWGRRSRLRLSGKPLLLTELFLPASPLY	–	0.51 ± 0.04	54.7 ± 3.4	–
UbiC_C22: E. coli UbiC variant with mutations E31Q/M34V (protein, UniProt P26602 2-165, looked up, variant E31Q M34V) Chorismate pyruvate-lyase: SHPALTQLRALRYCKEIPALDPQLLDWLLLQDSVTKRFEQQGKTVSVTMIREGFVEQNEIPEELPLLPKESRYWLREILLCADGEPWLAGRTVVPVSTLSGPELALQKLGKTPLGRYLFTSSTLTRDFIEIGRDAGLWGRRSRLRLSGKPLLLTELFLPASPLY	–	1.04 ± 0.09	148 ± 9.4	muconate yield increase (P. putida CJ200): ~130%
